Laboratory results reported in IntAct's records for PubMed 10854325.

B1: Interleukin-1 receptor-associated kinase 1 (Mus musculus), Q62406 (parent)
chain: MAGGPGPGEPVVPGAQHFLYEVPPWVMCRFYKVMDALEPADWCQFAALIVRDQTELRLCERSEQRTASVLWPWINRNARVADLVHILTHLQLLRARDIITAWHPPAPVVPPSTAAPRPSSISAGSEAGDWSPRKLQSSASTFLSPAFPGSQTHSESELLQVPLPVSLGPPLPSSAPSSTKSSPESPVSGLQRAHPSPFCWPFCEISQGTCNFSEELRIGEGGFGCVYRAVMRNTTYAVKRLKEEADLEWTMVKQSFLTEVEQLSRFRHPNIVDFAGYCAESGLYCLVYGFLPNGSLEDQLHLQTQACSPLSWPQRLDILLGTARAIQFLHQDSPSLIHGDIKSSNVLLDERLMPKLGDFGLARFSRFAGAKASQSSTVARTSTVRGTLAYLPEEYIKTGRLAVDTDTFSFGVVILETLAGQRAVRTQGAKTKYLKDLIEDEAEEAGVTLKSTQPTLWVGVATDAWAAPIAAQIYKKHLDSRPGPCPPQLGLALAQLACCCMHRRAKKRPPMTQVYKRLEGLQAGPPWELEVAGHGSPSPQENSYMSTTGSAQSGDEPWQPLVVTTRAPAQAAQQLQRSPNQPVESDESVPGLSATLHSWHLTPGSHPSPASFREASCTQGGTTRESSVRSSPGFQPTTMEGSPTGSSSLLSSEPPQIIINPARQKMVQKLALYEEGVLDSLQLLSSGFFPGLDLEPEKSQGPEESDEFQS

Variants of: B1
Conditions: with tolip_mouse Tollip

Row | Variant | effect of a mutation on the interaction
1 | T66A | decreasing interaction
